From US9278137B2, “Polymeric conjugates of active principles, their process of preparation and their polymeric intermediates” (SANOFI, priority 2010, dated 2016)
Like-named read-outs stand apart in the source and are kept apart here.

Assays:
[1] = for In vitro data in rat plasma (release of free cabazitaxel): 37° C., formulation 1 mg/mL; for release profile (in words): comparison of linkers
[2] = Nanoparticle size (hydrodynamic diameter) by dynamic light scattering (DLS); settings: nanodispersion 10 mg/mL in WFI

Substance	In vitro data in rat plasma (release of free cabazitaxel) ([1]; Time 0 h)	In vitro data in rat plasma (release of free cabazitaxel) ([1]; Time 1 h)	In vitro data in rat plasma (release of free cabazitaxel) ([1]; Time 2 h)	In vitro data in rat plasma (release of free cabazitaxel) ([1]; Time 4 h)	In vitro data in rat plasma (release of free cabazitaxel) ([1]; Time 18 h)	In vitro data in rat plasma (release of free cabazitaxel) ([1]; Time 24 h)	free cabazitaxel released in 24 h ([1]; rat plasma) [%]	release profile (in words) ([1]; rat plasma)	release of succinyl-cabazitaxel from the formulation ([1]; rat plasma, quantified using HPLC)	Mean diameter (using DLS) [2] [nm]	PDI (DLS) [2]
mPEG2000-PLA10000-Y-succinyl-2′-cabazitaxel [VIII′]	0	0.84	1.68	3.30	17.35	20.16	~17	slowest release profile	< 1 % of cabazitaxel present initially in the nanoparticles		
mPEG-PLA-diglycolyl-cabazitaxel [XI]	2.20	5.36	8.67	14.81	49.39	55.09	~47	relatively rapid release		52	0.18
mPEG-PLA-glutaryl-cabazitaxel	0	1.31	2.30	5.29	23.51	31.72	~27			60	0.21
mPEG-PLA-succinyl-larotaxel [IX]										48	0.17
